Data as given in the supplement of paper PMC12764529.
± gives the half width of the 95% confidence interval.

Key:
[1] = folding stability dG unfold from trypsin proteolysis; higher = more stable
In short: (§1)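 Designed mini-proteins with no cysteine and under 80 residues were kept only if AlphaFold2 dimer inter-PAE was above 15. In a PA-tagged cDNA display construct, they were digested with trypsin and chymotrypsin and then sequenced. K50 was inferred by Bayesian fitting of counts, and unfolding free energy was derived per protease or combined against a sequence-predicted unfolded-state K50 and a shared folded-state K50.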

[2] = folding stability dG unfold from chymotrypsin proteolysis; higher = more stable
In short: as §1

[3] = folding stability dG unfold (combined trypsin and chymotrypsin); higher = more stable
In short: as §1

Sequence	folding stability dG unfold [1]	folding stability dG unfold [2]	folding stability dG unfold [3]
SAGGSAKKKIIEIKIKVKTKEEAKEAIEKLSEELKKKIKKIEIVEIKEKDGEYYVKIKIEVPPNEKSAGGSA [r15_244_TrROS_Hall]	1.97 ± 0.063 kcal/mol	2.32 ± 0.075 kcal/mol	2.25 ± 0.14 kcal/mol
SAGGSAKKKTIELTIVIKIKKKPGETAEEIAKKILDALKKLLPPGAKIEIEVEVKDDYIVIKVKIESAGGSA [r15_739_TrROS_Hall]	2.49 ± 0.14 kcal/mol	2.76 ± 0.09 kcal/mol	2.69 ± 0.13 kcal/mol
SAGGSAKKLKITIVADSEEEARRLAEELARLLRELLPDGSELEVEIEVRVFRPPPPPLPSLEELLASAGGSA [r15_663_TrROS_Hall]	3.2 ± 0.21 kcal/mol	3.83 ± 0.12 kcal/mol	3.49 ± 0.18 kcal/mol
SAGGSAKKPKIKIKIKITNENGEKIEIEIEAETEEEALEAAKKLAEELAKKPNIKEVKIEITEIEPSAGGSA [r15_698_TrROS_Hall]	1.74 ± 0.067 kcal/mol	2.19 ± 0.1 kcal/mol	2.07 ± 0.096 kcal/mol
SAGGSAKKPKPIYLKLTITLSEEEAKKLAEELAEELKKLFPDVEIVEIKVEKDENGNVTVTIYVRLSAGGSA [r15_718_TrROS_Hall]	3.14 ± 0.22 kcal/mol	4.57 ± 0.14 kcal/mol	4.25 ± 0.28 kcal/mol
SAGGSAKKVEKVTVTVLIEKDGKLYLVRVTVTRPKVKYDKKTGKFTVTLKPGEKVEIKVEVVELPESAGGSA [r15_1040_TrROS_Hall]	2.65 ± 0.21 kcal/mol	3.7 ± 0.12 kcal/mol	3.62 ± 0.24 kcal/mol
SAGGSAKPNEKVKIRIINEDGEEIEIEVEVKPGEKIYLLENGEEVEVKPGEKIEFPPGAKILVEKVSAGGSA [r15_152_TrROS_Hall]	1.11 ± 0.034 kcal/mol	1.07 ± 0.02 kcal/mol	1.1 ± 0.12 kcal/mol
SAGGSAKPVKVDTLVLTAPFESKEEAEKAVEEFAKAVAEKLPKDVKVEVEVKYDPETKTFTAVVKASAGGSA [r15_981_TrMRF]	2.23 ± 0.093 kcal/mol	2.368 ± 0.018 kcal/mol	2.34 ± 0.051 kcal/mol
SAGGSAKRVITIGNDEDQERVQEEAEDNGVKKRPIPGDWDDFLSNLQDNFPEIDRIVIPNGREFEISAGGSA [r15_712_TrROS]	-0.659 ± 0.32 kcal/mol	-1.27 ± 0.32 kcal/mol	-0.953 ± 0.44 kcal/mol
SAGGSAKRVIVIGSKEERERAREAAEKENLEVVEIEGPVEEALAKLKELFPEIDEIVIVLPEEEEESAGGSA [r15_712_TrROS_Hall]	0.68 ± 0.14 kcal/mol	0.768 ± 0.14 kcal/mol	0.899 ± 0.19 kcal/mol
SAGGSAKSLTLTVEITLPDGSTVRIEAEIEEKDGYLVIKVTIYNEDGEKVAEFTLVLKLPPPPPEPSAGGSA [r15_263_TrROS_Hall]	2.84 ± 0.47 kcal/mol	4.42 ± 0.2 kcal/mol	3.76 ± 0.66 kcal/mol
SAGGSAKTIEITLEDGSKVTITEVKDGYIRIYVSEEAKEALKKLGLEEVDEENNVITLPLEKLKKLSAGGSA [r15_984_TrROS_Hall]	1.22 ± 0.052 kcal/mol	1.86 ± 0.045 kcal/mol	1.62 ± 0.1 kcal/mol
SAGGSAKTITIEVKVEKTKDGKIKKGEIVKVEIEVDEKTKKVKIKIYNKNGELIAEIEIELSPEDLSAGGSA [r15_134_TrROS_Hall]	1.34 ± 0.21 kcal/mol	2.95 ± 0.16 kcal/mol	2.81 ± 0.39 kcal/mol
SAGGSAKVKIIVTYNDGKKEEIIFDIPENYEISEVEKIAKKIAKNIAKKKNLPNVNIKVEKIEPLESAGGSA [r15_463_TrMRF]	2.41 ± 0.047 kcal/mol	3.39 ± 0.06 kcal/mol	3.09 ± 0.074 kcal/mol
SAGGSAKWVLVRIELEKGGKPLEFYQRVKAKEPELDIKIPPGIEEEGFKILRIEVEEISPEELEKESAGGSA [r15_853_TrMRF]	0.864 ± 0.04 kcal/mol	1.32 ± 0.18 kcal/mol	1.18 ± 0.15 kcal/mol
SAGGSALDPGKPVRVTVNLRVYRPLPDGTVKTFPSATVDLPVEEVLDLAKALPKEYTVTVDSIVVDSAGGSA [r15_833_TrMRF]	0.249 ± 0.14 kcal/mol	0.663 ± 0.17 kcal/mol	0.513 ± 0.18 kcal/mol
SAGGSALEVKPGAGNTLTVYTPLPEDIPISEVIEELKKKYPNITAETDETSDGVAVVTLTLPPGLGSAGGSA [r15_1047_JUSTAS]	0.984 ± 0.051 kcal/mol	0.401 ± 0.25 kcal/mol	0.724 ± 0.12 kcal/mol
SAGGSALKDFPLEEVEKVILVDLPDGKPALLVLLKGPPVVVLYPLESGKPIFIDAPLEEVLEFLLSSAGGSA [r15_810_TrMRF]	2.68 ± 0.05 kcal/mol	2.892 ± 0.014 kcal/mol	2.83 ± 0.044 kcal/mol
SAGGSALKIHPDEKVLVKLKNTKKPVEAKVVKVEKLPNNKWVFYVEVKLNGKKVKIPVDGKDVVVASAGGSA [r15_62_TrMRF]	2.55 ± 0.2 kcal/mol	2.38 ± 0.07 kcal/mol	2.45 ± 0.23 kcal/mol
SAGGSALKNSTLRITVERGNVPFTVEVKLKSVVVDLESGKVDVELPEEFKKLFKGPVKILSLEIPDSAGGSA [r15_710_TrMRF]	0.884 ± 0.057 kcal/mol	1.82 ± 0.11 kcal/mol	1.53 ± 0.17 kcal/mol
SAGGSALLEALKKLAEELGLEVELEEVRVETETRTETRTLPDGRTETRTETEVRVEVKVTVRPKPASAGGSA [r15_561_TrROS_Hall]	2.59 ± 0.075 kcal/mol	2.72 ± 0.1 kcal/mol	2.71 ± 0.082 kcal/mol

Sequence	folding stability dG unfold [1]	folding stability dG unfold [2]	folding stability dG unfold [3]
SAGGSALPIETPSDGVVPYTDPVTGKTYTVTFRRDEGKTSFRVEEPESSATREVTEPVSVTEAVLTSAGGSA [r15_234_JUSTAS]	-0.219 ± 0.12 kcal/mol	0.069 ± 0.13 kcal/mol	0.000309 ± 0.084 kcal/mol
SAGGSALPPDAPFTVEREVPFTLPDGALVTLYYNPETGTVLVRFYPPDGGEVRVEAKAEEALALLSSAGGSA [r15_2_TrMRF]	1.17 ± 0.019 kcal/mol	1.34 ± 0.06 kcal/mol	1.31 ± 0.039 kcal/mol
SAGGSAMAIVEYDPDNRVRAIVYFPGEKRVALVEVDDDTATVTAVYDLSDDGVATYLDEATFEIGGSAGGSA [r2_60_TrMRF]	0.896 ± 0.048 kcal/mol	0.87 ± 0.043 kcal/mol	0.922 ± 0.046 kcal/mol
SAGGSAMEELKEKVLEAWKKLTPDTPVTIKEINPEKKEITIETTSEEAKEKLKKAAKEMGIKIKIKSAGGSA [r15_196_JUSTAS]	0.71 ± 0.27 kcal/mol	1.28 ± 0.33 kcal/mol	0.63 ± 0.39 kcal/mol
SAGGSAMEIEVTLTDPALLEALIAELPYPVEVSEDPTDPSVTRVTLRTETSAEEVREAVARALGLESAGGSA [r15_118_JUSTAS]	0.732 ± 0.037 kcal/mol	1.27 ± 0.06 kcal/mol	1.07 ± 0.081 kcal/mol
SAGGSAMEIVAVEKGDNTVTLLLRDPETGELYTATFHFIPGSKTVHATVTFPDGSTATFTFDATALSAGGSA [r15_1055_TrMRF]	2.82 ± 0.09 kcal/mol	4.32 ± 0.068 kcal/mol	4.01 ± 0.12 kcal/mol
SAGGSAMERVTITLPDGRELTIERFPEEPNRFVLTFPDGRRLEFEFESPEEGLRAALELVLAGKEGSAGGSA [r15_38_TrMRF]	3.34 ± 0.075 kcal/mol	4.13 ± 0.042 kcal/mol	3.91 ± 0.06 kcal/mol
SAGGSAMFMFELTIPPNAKIPPGYKLKIRFPNGKEEEYKFNNGPIKIWFYMDPDGNIQLDLEVEKKSAGGSA [r15_992_TrROS]	2.97 ± 0.09 kcal/mol	4.9 ± 0.14 kcal/mol	4.35 ± 0.15 kcal/mol
SAGGSAMIEVKIEVPDDASEEEKAELAEKIKKEIKASGVEPTENGIPVKKSLENVEVKVTFLKKKKSAGGSA [r15_717_JUSTAS]	-0.469 ± 0.2 kcal/mol	0.074 ± 0.33 kcal/mol	-0.196 ± 0.38 kcal/mol
SAGGSAMITLEDIKALGPDNPIRTFPETGLVFVERPGELTLYKFDPKTNTVTKLKTFNSPEEKEKLSAGGSA [r15_6_JUSTAS]	0.405 ± 0.035 kcal/mol	1.15 ± 0.083 kcal/mol	0.863 ± 0.069 kcal/mol
SAGGSAMKEGKPAVEVEVTVLIELSAEEIAKLLGKEIKEGDTVLITVKVRVYPDGSVEIEIRVEKLSAGGSA [r15_91_TrROS_Hall]	2.87 ± 0.15 kcal/mol	3.19 ± 0.17 kcal/mol	3.08 ± 0.17 kcal/mol
SAGGSAMKEITIEVDGKTVRVKVYFKDTGKVVERTFPKGTSVEELAKELEEEFGKDVEIVEVEEVPSAGGSA [r15_544_TrROS_Hall]	2.43 ± 0.11 kcal/mol	3.57 ± 0.11 kcal/mol	3.24 ± 0.15 kcal/mol
SAGGSAMKIELENAKILDIKPTPDGKKVIFIELPSGKIIAVYEDNKVAVRSKKDPSVKPEDADPVFSAGGSA [r15_692_TrMRF]	0.374 ± 0.07 kcal/mol	1.17 ± 0.046 kcal/mol	0.892 ± 0.11 kcal/mol
SAGGSAMKITYKPPSGETTVHPIPPGLTPEERRALAEELAKALQEKTGDPNVTVEFDPATGEITVASAGGSA [r15_33_JUSTAS]	1.33 ± 0.034 kcal/mol	-0.0618 ± 0.15 kcal/mol	0.84 ± 0.11 kcal/mol
SAGGSAMKIVEKKTVTLTLPDGREVTVTLTKVEVDGETYYVLTVTDKDTGKTYTFVFKPGQSLEDLSAGGSA [r15_75_TrROS_Hall]	3.17 ± 0.092 kcal/mol	4.67 ± 0.083 kcal/mol	4.39 ± 0.2 kcal/mol
SAGGSAMKLKLTFVADSPEQAEQLAEEYTRLNPELFPGEKDYPLEIEVYVLVAPPLVPPSPEELAGSAGGSA [r15_663_TrMRF]	1.23 ± 0.051 kcal/mol	2.12 ± 0.27 kcal/mol	1.69 ± 0.27 kcal/mol
SAGGSAMKLTAETTDPGSDRFEATIYDPSDSGGDSVVSFESEEELEAFIKNLPSSVASVSLVPTSPSAGGSA [r15_589_JUSTAS]	0.983 ± 0.017 kcal/mol	0.378 ± 0.035 kcal/mol	0.728 ± 0.033 kcal/mol
SAGGSAMKPDDYVVIKIEIENMSEEEIAKKLADELKKLFPDVEVKVTVEKEEDGRYRVTIEVVLKKSAGGSA [r15_916_TrROS_Hall]	1.83 ± 0.056 kcal/mol	3.34 ± 0.15 kcal/mol	2.83 ± 0.26 kcal/mol
SAGGSAMKPGQKLLVKNKKTNKIYEITFDKDTGKVYIHNKKTGKTYEFDSLEDALKKMGFEPVKVESAGGSA [r15_500_TrROS_Hall]	1.43 ± 0.078 kcal/mol	2.45 ± 0.08 kcal/mol	2.28 ± 0.16 kcal/mol
SAGGSAMKVEIVLKVPGDEMLDIEVDEEFPVVDQTIDKETGIVTVLLEGDPEKAEEIAKEIAEKLGSAGGSA [r15_662_TrMRF]	0.6 ± 0.069 kcal/mol	0.299 ± 0.044 kcal/mol	0.511 ± 0.1 kcal/mol
